For one substance, complex half-life (min (half-life)) results are on record in patent publication US20050123944.

This series deals with BamHI. Kind of series: EMSA. The conditions noted are these: value is complex half-life, not a rate; 5 mM CaCl2, no Mg2+; 2 nM BamHI, 100 pM DNA, 6000-fold unlabeled competitor.

On to DNA duplex with single BamHI site, for which the complex half-life (min (half-life)) is 39600.
